Experimental findings from the supplement of paper PMC11780869 are described below.

This data set relates to Bacillus subtilis. Kind of data set: cleaved RNA product abundance (RNA/gDNA barcode ratio) relative to median wild-type variant (ratio to wild type); higher = more accumulation of the downstream cleavage product. In short, it runs like this:
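Reporter mRNAs based on truncated aprE or tetM carried barcoded, mutagenized RNase Y cleavage-site windows built from oligos with a 9% error rate and were integrated into the B. subtilis chromosome. Cultures grew in LB at 37°C from OD600 0.0003 to 0.3. Cleaved RNA was gel-selected, reverse transcribed and barcode-sequenced together with genomic DNA barcodes, and UMIs were collapsed. Cleaved product abundance is the per-construct ratio of RNA to gDNA barcodes, scaled to the median of constructs carrying the unmutated site.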

[1] abbreviates: experiment (reporter, strain, medium): exp 8a: truncated aprE reporter, strain BJT201 with 2% xylose (RNase J1 expressed), cleavage site: glnRA (positions -5 to +31 mutated).
The mark [2] stands for this setting: experiment (reporter, strain, medium): exp 2b: truncated aprE reporter, strain BJT200, cleavage site: cggR-gapA (positions -7 to +36 mutated).
[3] abbreviates: experiment (reporter, strain, medium): exp 4a: truncated aprE reporter, strain BJT201 with 2% xylose (RNase J1 expressed), cleavage site: cggR-gapA (positions -7 to +36 mutated).
The mark [4] stands for this setting: experiment (reporter, strain, medium): exp 6: tetM reporter, strain 168, cleavage site: cggR-gapA (positions -7 to +36 mutated).

Take “CGACATGTCCCGCTTCTTTCATTAATCCGTTCGCAACTTTTTTGCTATATACATTTACCTTTTAAGAGGAGGAAT”: the “cleaved RNA product abundance” value under setting [1] was found to be 0.381.

As for “CGACATGTCCCGCTTCTTTCATTAATCCGTTAGCAACTGTTTTGCTATATACATTTCCCTTTTAAGAGGAGGAAT”, the “cleaved RNA product abundance” value under setting [1] was 0.531.

On to “CGACATGTCCCGCTTCTTTCATTAATCCGTTAGCAAATGTTTTGCTATATACATTAACCTTTTAAGAGGAGGAAT”, for which, under setting [1], the “cleaved RNA product abundance” value is 1.13.

With “ACAGACGAAGGAGCCGCAAAGAAGTTATTAAGGGATGAATAAGCCCTCAATATAAATATCTCTCACTTATTTAAA”, the “cleaved RNA product abundance” value is, setting by setting: under setting [2], 0.683; under setting [3], 0.634; under setting [4], 0.775.

In the case of “CGACATGTCCCGCTTCTTTCATTAATCCGATAGCAACTGTTTTGCTATATACATCTACCTTTTAAGAGGAGGAAT”, the “cleaved RNA product abundance” value under setting [1] is 0.88.

In the case of “ACAGACGAAGGAGCCGCAAAGAAGTTATTAAGGGATAAATAATCACTCAATATAAATATCTCTCACTTATTTAAA”, the “cleaved RNA product abundance” value runs as follows: under setting [2], 0.0853; under setting [3], 0.104.

Turning to “CGACATGTCCCGCTTCTTTCATTAATCCGTTACCAACTGTTTTGCAATATACATTTACCTTTTAAGAGGAGGAAT”, the “cleaved RNA product abundance” value under setting [1] was 0.26.

In the case of “ACAGACGAAGGAGCCGCAAAGAAGTTATTAAGGGATTAATAATCCCTCAATATAAATAACTCTCACTTATTTAAA”, the “cleaved RNA product abundance” value under setting [2] was 1.02 and the “cleaved RNA product abundance” value under setting [3] turned out to be 0.594.

“ACAGACGAAGGAGCCGCGAAGAAGTTATTAAGGGATGAATAATACCTCAATATAAATATCTCTCACTTATTTAAA”: the “cleaved RNA product abundance” value under setting [3] came out at 0.117.

In the case of “ACAGACGAAGGAGCCGCAAATAAGTTAGTAAGGGATGAATAATCCCTCAATATAAATATCTCTCACTTATTTAAA”, the “cleaved RNA product abundance” value under setting [2] was determined as 0.305 and the “cleaved RNA product abundance” value under setting [3] was determined as 0.549.

Turning to “ACAGACGAAGGAGCCGCAAAGAAGTTATTAAGGGATGAATTATCCCTCAATATACATATCTCTCACTTATTTAAA”, the “cleaved RNA product abundance” value under setting [3] came to 0.442.

As for “ACAGACGAAGGAGCCGCAAAGAAGGTATTAAGGGATGAATAATCCATCAATATAAATATCTCTCACTTATTTAAA”, the “cleaved RNA product abundance” value under setting [3] came to 0.13.

For the sequence “ACAGACGAAGGAGCCGCAAAGAAGTAATTAAGGGATGAATAATCCCTCCATATAAATATCTCTCACTTATTTAAA”, the “cleaved RNA product abundance” value under setting [3] amounted to 0.0749.

Regarding “ACAGACGAAGGAGCCGCAAAAAAGTTATTAAGGGATGAATAATCCCACAATATAAATATCTCTCACTTATTTAAA”, the “cleaved RNA product abundance” value by setting is: under setting [2], 0.237; under setting [3], 0.254.

“CGACATGTCCCGCTTCTTTCATTAATCGGTTAGCAACTGTTTTGCTATAAACATTTACCTTTTAAGAGGAGGAAT”: the “cleaved RNA product abundance” value under setting [1] stood at 0.876.

For the sequence “ACAGACGAAGGAGCCGCAAAGAAGTTATTAAGGGATGAATAATCCTTCGATATAAATATCTCTCACTTATTTAAA”, the “cleaved RNA product abundance” value under setting [3] is 0.257.

Regarding “ACAGACGAAGGAGCCGCAAAGAAGTTATTAAGGGATGAATAATCCCTCAATTTATATATCTCTCACTTATTTAAA”, the “cleaved RNA product abundance” value under setting [3] worked out at 0.2.

As for “ACAGACGAAGGAGCCGCAAAGAAGTTATTAAGTGATGAATAATCCCTCAACATAAATATCTCTCACTTATTTAAA”, the “cleaved RNA product abundance” value under setting [3] was determined as 0.0935.

For “ACAGACGAAGGAGCCGCAAAGAAGTTATTAAGAGATGAACAATCCCTCAATATAAATATCTCTCACTTATTTAAA”, the “cleaved RNA product abundance” value is, setting by setting: under setting [2], 0.0784; under setting [3], 0.205.

As to “ACAGACGAAGGAGCCGCCAAGAAGTTATTAAAGGATGAATAATCCCTCAATATAAATATCTCTCACTTATTTAAA”, the “cleaved RNA product abundance” value under setting [3] is 0.144.

Turning to “CGACATGTCCCGCTTCTTTCATTAATCCGTTAGCAACTGTTTTGCTATAAACATTTACGTTTTAAGAGGAGGAAT”, the “cleaved RNA product abundance” value under setting [1] turned out to be 1.32.

“ACAGACGAAGGAGCCGCAAAGAAGTTATTAAGGGTTGAATAATCCCTTAATATAAATATCTCTCACTTATTTAAA”: under setting [3], the “cleaved RNA product abundance” value worked out at 0.608.

For the sequence “ACAGACGAAGGAGCCGCAAAGAAACTATTAAGGGATGAATAATCCCTCAATATAAATATCTCTCACTTATTTAAA”, the “cleaved RNA product abundance” value came to 0.644 under setting [2] and 0.557 under setting [3].

As for “CGACATGTCCCGCTTCTTTCATTAATCCGTTAACAACTGTTTTGCTATATACATTTACTTTTTAAGAGGAGGAAT”, the “cleaved RNA product abundance” value under setting [1] was found to be 0.253.

With “CGACATGTCCCGCTTCTTTCATTAATCCGTTAACAATTGTTTTGCTATATACATTTACCTTTTAAGAGGAGGAAT”, the “cleaved RNA product abundance” value under setting [1] is 0.241.

In the case of “ACAGACGAAGGAGCCGCTAAGAAGTTATTAAGGGAGGAATAATCCCTCAATATAAATATCTCTCACTTATTTAAA”, under setting [3], the “cleaved RNA product abundance” value was determined as 0.993.

As to “CGACATGTCCCGCTTCTTTCATTAATCCGTTAGCAACTGTTTTGCTAAATACATTTGCCTTTTAAGAGGAGGAAT”, the “cleaved RNA product abundance” value under setting [1] worked out at 0.22.

On to “CGACATGTCCCGCTTCTTTCATTAATCTGTTAGAAACTGTTTTGCTATATACATTTACCTTTTAAGAGGAGGAAT”, for which the “cleaved RNA product abundance” value under setting [1] came out at 0.269.

In the case of “CGACATGTCCCGCTTCTTTCATTAATCCTTTAGCAACTGTTTTGCGATATACATTTACTTTTTAAGAGGAGGAAT”, the “cleaved RNA product abundance” value under setting [1] came out at 0.438.

For the sequence “ACAGACGAAGGAGCCGCAAAGAAGTAAATAAGGGATGAATAATCCCTCAATATAAATATCTCTCACTTATTTAAA”, the “cleaved RNA product abundance” value was found to be 0.151 under setting [2] and 0.258 under setting [3].

For the sequence “ACAGACGAAGGAGCCGCAGATAAGTTATTAAGGGATGAATAATCCCTCAATATAAATATCTCTCACTTATTTAAA”, under setting [3], the “cleaved RNA product abundance” value is 0.636.

Regarding “ACAGACGAAGGAGCCGCAAAGAAGTTATTAAGGGATAAATAATCCCTCAATATAAATGTCTCTCACTTATTTAAA”, the “cleaved RNA product abundance” value under setting [2] turned out to be 0.46 and the “cleaved RNA product abundance” value under setting [3] was determined as 0.539.

For the sequence “ACAGACGAAGGAGCCGCAAAGAAGTTATTAAGGGATGAATAATCTCTCTATATAAATATCTCTCACTTATTTAAA”, the “cleaved RNA product abundance” value under setting [3] was 0.292.

On to “ACAGACGAAGGAGCCGCAAAGAAGTTATTAAGGGATGAATAATCCCTCGATATAAATATCTCTCACTTATTTAAA”, for which the “cleaved RNA product abundance” value runs as follows: under setting [2], 0.348; under setting [3], 0.419; under setting [4], 0.589.

On to “ACAGACGAAGGAGCCGCAAAGAAGTTATTAAAGGATCAATAATCCCTCAATATAAATATCTCTCACTTATTTAAA”, for which, under setting [3], the “cleaved RNA product abundance” value was 0.115.

Take “ACAGACGAAGGAGCCGCAAAGAAGTTATTAAGGGATGTATAATCCTTCAATATAAATATCTCTCACTTATTTAAA”: under setting [3], the “cleaved RNA product abundance” value was found to be 0.922.

As to “ACAGACGAAGGAGCCGCAAAGAAGTTATTAAGGGATCAATAATCCCTCAATATAAATCTCTCTCACTTATTTAAA”, the “cleaved RNA product abundance” value under setting [3] turned out to be 0.706.

Consider “CGACATGTCCCGCTTCTTTCATTAATCCGTTAGCAACTGTTTTGCTATATACATTTCCCATTTAAGAGGAGGAAT”, for which the “cleaved RNA product abundance” value under setting [1] turned out to be 1.11.

“ACAGACGAAGGAGCCGCAAAGAAGCTATTAAGGGACGAATAATCCCTCAATATAAATATCTCTCACTTATTTAAA”: the “cleaved RNA product abundance” value under setting [3] turned out to be 0.436.

For the sequence “ACAGACGAAGGAGCCGCAAAGAAGTTATTAAGGGATGAATAATCCCTCATTATAAATCTCTCTCACTTATTTAAA”, under setting [2], the “cleaved RNA product abundance” value came to 0.236.

For “ACAGACGAAGGAGCCGCAAAGAATTTATTAAGGGATGAATAATGCCTCAATATAAATATCTCTCACTTATTTAAA”, under setting [3], the “cleaved RNA product abundance” value was determined as 0.177.

For “ACAGACGAAGGAGCCGCAAAGAAGTTATTACAGGATGAATAATCCCTCAATATAAATATCTCTCACTTATTTAAA”, under setting [3], the “cleaved RNA product abundance” value was 0.165.
